Assays:
SHP2-C SH2 = assay: SH2 binding enrichment of the phosphorylated peptide, bacterial display (enrichment ratio); higher = better substrate or ligand; peptides without Tyr show the background
Grb2 SH2 = Grb2 SH2 (UniProt P62993); assay: as above
c-Src SH2 = assay: as above
c-Src = assay: phosphorylation enrichment, bacterial display (enrichment ratio); higher = better substrate or ligand; peptides without Tyr show the background
Fyn = Fyn (UniProt P06241); assay: as above
c-Abl (mouse) = assay: as above
FGFR1 = FGFR1 (UniProt P11362); assay: as above
Sequence of FGFR1 (P11362 whole entry, looked up): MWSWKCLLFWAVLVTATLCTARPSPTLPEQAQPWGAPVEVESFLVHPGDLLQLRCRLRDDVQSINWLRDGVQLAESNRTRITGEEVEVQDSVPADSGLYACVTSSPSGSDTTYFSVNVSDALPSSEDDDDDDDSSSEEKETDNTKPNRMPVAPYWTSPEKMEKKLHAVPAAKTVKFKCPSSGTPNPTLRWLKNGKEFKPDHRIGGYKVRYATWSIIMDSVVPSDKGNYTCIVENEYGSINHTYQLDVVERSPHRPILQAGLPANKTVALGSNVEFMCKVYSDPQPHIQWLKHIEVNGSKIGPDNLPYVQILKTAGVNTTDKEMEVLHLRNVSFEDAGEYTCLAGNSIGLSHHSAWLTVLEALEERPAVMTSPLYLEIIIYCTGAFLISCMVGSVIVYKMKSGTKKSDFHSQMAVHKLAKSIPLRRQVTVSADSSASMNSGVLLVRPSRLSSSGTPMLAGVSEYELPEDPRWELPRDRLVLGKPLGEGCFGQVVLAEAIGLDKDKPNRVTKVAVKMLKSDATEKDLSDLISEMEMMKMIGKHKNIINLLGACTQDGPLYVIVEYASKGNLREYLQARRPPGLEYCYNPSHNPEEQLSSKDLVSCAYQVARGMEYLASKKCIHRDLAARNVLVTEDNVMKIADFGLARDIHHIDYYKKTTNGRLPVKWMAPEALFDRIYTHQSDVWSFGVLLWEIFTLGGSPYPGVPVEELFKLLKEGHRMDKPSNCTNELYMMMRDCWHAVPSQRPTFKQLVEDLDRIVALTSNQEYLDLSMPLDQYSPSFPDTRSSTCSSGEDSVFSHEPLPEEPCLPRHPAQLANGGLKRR

FGFR3 = FGFR3 (UniProt P22607); assay: as above
Sequence of FGFR3 (P22607 whole entry, looked up): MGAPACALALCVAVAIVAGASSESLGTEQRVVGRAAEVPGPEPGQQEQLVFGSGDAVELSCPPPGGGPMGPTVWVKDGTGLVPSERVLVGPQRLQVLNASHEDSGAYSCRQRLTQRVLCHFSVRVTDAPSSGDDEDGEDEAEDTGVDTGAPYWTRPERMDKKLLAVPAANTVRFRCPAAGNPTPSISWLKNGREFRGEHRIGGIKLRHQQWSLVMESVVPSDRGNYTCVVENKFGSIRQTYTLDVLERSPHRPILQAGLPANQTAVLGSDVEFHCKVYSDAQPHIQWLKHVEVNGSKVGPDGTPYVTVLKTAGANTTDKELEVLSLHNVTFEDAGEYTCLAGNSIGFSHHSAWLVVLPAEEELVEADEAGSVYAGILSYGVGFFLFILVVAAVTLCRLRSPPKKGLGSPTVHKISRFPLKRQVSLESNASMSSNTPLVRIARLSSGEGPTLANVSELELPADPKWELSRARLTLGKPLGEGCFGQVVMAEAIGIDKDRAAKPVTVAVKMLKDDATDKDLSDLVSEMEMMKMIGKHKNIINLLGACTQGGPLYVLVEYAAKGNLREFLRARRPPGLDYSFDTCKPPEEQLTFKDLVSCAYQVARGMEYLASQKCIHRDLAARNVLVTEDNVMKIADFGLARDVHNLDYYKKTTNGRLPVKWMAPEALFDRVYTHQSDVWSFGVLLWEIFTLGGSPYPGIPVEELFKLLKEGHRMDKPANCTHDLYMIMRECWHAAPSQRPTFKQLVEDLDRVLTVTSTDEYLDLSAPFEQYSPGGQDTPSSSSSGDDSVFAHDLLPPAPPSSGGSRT

Fer (mouse) = assay: as above
EPHB2 = EPHB2 (UniProt P29323); assay: as above
Jak2 = Jak2 (UniProt O60674); assay: as above
Sequence of Jak2 (O60674 whole entry, looked up): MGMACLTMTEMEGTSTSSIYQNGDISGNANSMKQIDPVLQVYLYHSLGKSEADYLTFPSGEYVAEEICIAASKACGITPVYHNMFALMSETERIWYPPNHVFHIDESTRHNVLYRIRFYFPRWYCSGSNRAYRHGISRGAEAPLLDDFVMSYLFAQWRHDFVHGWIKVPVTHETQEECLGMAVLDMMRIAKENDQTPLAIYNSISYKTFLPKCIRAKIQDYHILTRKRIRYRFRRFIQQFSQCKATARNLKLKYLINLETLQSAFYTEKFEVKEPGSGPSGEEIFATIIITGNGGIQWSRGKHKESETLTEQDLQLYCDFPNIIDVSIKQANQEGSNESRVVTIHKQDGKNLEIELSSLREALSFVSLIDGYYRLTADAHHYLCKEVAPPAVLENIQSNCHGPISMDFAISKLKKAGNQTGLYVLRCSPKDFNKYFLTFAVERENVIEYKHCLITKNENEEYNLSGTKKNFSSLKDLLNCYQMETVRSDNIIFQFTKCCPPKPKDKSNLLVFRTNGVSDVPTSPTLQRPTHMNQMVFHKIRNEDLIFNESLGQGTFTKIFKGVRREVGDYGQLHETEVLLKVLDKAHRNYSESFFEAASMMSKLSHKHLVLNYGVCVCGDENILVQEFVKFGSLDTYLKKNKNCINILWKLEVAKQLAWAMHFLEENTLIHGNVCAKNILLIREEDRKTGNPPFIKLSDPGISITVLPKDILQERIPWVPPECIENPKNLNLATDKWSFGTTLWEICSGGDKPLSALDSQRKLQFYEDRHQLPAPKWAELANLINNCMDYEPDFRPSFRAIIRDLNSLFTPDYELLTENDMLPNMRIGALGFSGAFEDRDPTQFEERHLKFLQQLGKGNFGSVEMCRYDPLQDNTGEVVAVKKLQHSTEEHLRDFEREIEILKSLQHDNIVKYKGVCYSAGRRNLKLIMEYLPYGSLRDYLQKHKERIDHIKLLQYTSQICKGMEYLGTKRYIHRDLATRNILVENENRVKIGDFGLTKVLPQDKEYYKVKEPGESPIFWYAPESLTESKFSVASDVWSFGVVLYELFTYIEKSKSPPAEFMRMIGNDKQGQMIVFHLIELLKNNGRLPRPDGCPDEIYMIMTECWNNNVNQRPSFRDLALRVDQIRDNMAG

AncSZ = assay: as above
Hck = Hck (UniProt P08631); assay: as above
MERTK = MERTK (UniProt Q12866); assay: as above
Sequence of MERTK (Q12866 whole entry, looked up): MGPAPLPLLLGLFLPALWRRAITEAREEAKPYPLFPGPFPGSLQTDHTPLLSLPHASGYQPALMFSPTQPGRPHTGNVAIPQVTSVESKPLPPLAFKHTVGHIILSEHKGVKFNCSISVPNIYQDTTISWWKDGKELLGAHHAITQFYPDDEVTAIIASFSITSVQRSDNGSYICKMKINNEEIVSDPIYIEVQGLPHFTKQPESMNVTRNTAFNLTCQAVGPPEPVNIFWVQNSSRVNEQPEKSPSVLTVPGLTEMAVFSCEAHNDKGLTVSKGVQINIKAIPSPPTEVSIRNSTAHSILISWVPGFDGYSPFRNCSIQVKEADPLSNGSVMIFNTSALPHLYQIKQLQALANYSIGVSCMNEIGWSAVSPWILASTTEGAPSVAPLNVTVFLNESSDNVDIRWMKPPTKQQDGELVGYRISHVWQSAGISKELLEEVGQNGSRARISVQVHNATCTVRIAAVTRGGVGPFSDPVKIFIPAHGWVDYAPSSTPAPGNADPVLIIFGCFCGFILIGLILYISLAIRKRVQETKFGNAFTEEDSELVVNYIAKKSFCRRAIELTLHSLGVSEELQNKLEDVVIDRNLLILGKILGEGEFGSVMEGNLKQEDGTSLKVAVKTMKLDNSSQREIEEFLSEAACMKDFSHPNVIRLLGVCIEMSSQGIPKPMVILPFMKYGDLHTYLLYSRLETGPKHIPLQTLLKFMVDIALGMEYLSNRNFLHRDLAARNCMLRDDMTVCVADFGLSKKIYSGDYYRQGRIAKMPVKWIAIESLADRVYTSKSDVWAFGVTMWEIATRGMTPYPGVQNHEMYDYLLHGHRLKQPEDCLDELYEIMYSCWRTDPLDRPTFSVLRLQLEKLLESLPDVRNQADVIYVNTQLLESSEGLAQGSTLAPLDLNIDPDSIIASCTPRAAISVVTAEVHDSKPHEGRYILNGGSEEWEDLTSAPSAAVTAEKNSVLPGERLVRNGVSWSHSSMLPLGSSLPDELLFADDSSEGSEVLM

Fes = Fes (UniProt P07332); assay: as above
EPHB1 = EPHB1 (UniProt P54762); assay: as above
Sequence of EPHB1 (P54762 whole entry, looked up, the tested form may be a part): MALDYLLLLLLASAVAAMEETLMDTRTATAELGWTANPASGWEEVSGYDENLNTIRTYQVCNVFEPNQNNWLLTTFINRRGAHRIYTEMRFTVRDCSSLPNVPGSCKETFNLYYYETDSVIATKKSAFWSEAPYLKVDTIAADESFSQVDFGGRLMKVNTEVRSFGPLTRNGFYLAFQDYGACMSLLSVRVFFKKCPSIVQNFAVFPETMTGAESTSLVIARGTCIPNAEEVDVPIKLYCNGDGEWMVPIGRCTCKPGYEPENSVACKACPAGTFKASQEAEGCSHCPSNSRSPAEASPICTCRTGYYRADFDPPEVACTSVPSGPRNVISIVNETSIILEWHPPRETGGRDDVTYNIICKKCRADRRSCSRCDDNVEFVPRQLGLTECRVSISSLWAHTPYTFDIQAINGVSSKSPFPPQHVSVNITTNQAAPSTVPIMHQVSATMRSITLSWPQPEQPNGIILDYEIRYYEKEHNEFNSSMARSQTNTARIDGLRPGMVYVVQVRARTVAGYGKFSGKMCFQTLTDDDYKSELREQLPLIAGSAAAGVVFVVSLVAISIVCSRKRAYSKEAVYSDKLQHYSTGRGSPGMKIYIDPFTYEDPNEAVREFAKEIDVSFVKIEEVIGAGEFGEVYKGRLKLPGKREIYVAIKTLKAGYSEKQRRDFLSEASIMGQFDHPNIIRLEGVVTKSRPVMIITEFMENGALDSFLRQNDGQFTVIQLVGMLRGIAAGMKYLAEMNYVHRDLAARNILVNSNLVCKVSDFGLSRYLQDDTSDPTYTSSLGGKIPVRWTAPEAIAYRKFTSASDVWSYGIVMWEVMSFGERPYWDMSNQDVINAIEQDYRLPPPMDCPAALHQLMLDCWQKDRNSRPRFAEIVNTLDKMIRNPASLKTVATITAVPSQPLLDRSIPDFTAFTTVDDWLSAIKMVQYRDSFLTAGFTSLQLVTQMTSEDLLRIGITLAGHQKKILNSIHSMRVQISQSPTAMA
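For SH2 binding enrichment of the phosphorylated peptide, bacterial display in this document: peptide library displayed on the E. coli surface as eCPX fusions, selected cells deep-sequenced, score is each peptide's frequency after selection divided by its frequency in the input.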
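For phosphorylation enrichment, bacterial display in this document: 11-residue human phosphosite peptides and single-mutation variants displayed on the E. coli surface, counted by deep sequencing, each peptide's frequency after selection divided by its frequency in the unselected input library; frequency after pTyr selection over input frequency; kinase dosed for 20-30% of maximal phosphorylation in three min.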

Sequence of Grb2 SH2 (P62993 whole entry, looked up): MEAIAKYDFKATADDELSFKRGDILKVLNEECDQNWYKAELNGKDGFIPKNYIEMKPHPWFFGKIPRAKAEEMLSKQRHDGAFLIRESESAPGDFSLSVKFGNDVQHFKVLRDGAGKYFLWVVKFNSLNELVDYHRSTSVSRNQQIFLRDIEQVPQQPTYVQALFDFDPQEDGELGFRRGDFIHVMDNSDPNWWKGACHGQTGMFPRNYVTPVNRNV

Sequence | SH2 binding enrichment (SHP2-C SH2) | SH2 binding enrichment (Grb2 SH2) | SH2 binding enrichment (c-Src SH2) | phosphorylation enrichment (c-Src) | phosphorylation enrichment (Fyn) | phosphorylation enrichment (c-Abl (mouse)) | phosphorylation enrichment (FGFR1) | phosphorylation enrichment (FGFR3) | phosphorylation enrichment (Fer (mouse)) | phosphorylation enrichment (EPHB2) | phosphorylation enrichment (Jak2) | phosphorylation enrichment (AncSZ) | phosphorylation enrichment (Hck) | phosphorylation enrichment (MERTK) | phosphorylation enrichment (Fes) | phosphorylation enrichment (EPHB1)
ISDEAYVMAGV [ERBB2_Y772_L768S] | 0.6 | 0.811 | 0.543 | 0.504 | 0.603 | 0.62 | 0.494 | 0.736 | 0.564 | 0.53 | 0.656 | 1.15 | 0.541 | 0.436 | 0.81 | 0.495
ISDNACQYMLT [MYH7_Y162_Y162C] | 0.748 | 0.752 | 0.511 | 0.811 | 0.546 | 0.679 | 0.623 | 0.687 | 0.587 | 0.583 | 1.18 | 1 | 0.518 | 0.75 | 1.05 | 0.629
ISIFRYAKGQP [MPZ_Y82_H81R] | 0.534 | 0.843 | 0.596 | 0.404 | 0.464 | 0.574 | 0.486 | 0.685 | 0.414 | 0.577 | 0.969 | 0.791 | 0.402 | 0.49 | 0.937 | 0.461
ISKKIYDPIHD [CTNNA3_Y614_T616P] | 0.648 | 0.691 | 0.426 | 0.541 | 0.636 | 0.445 | 0.436 | 0.529 | 0.446 | 0.475 | 0.516 | 0.57 | 0.731 | 0.455 | 0.694 | 0.48
ISKKRYAGLLF [POLD1_Y809] | 0.653 | 0.695 | 0.449 | 0.462 | 0.448 | 0.52 | 0.57 | 0.467 | 0.307 | 0.471 | 0.658 | 0.539 | 0.519 | 0.466 | 0.507 | 0.415
ITVCDYTNPCP [MYD88_Y276_T281P] | 0.85 | 1.07 | 0.686 | 0.943 | 0.428 | 0.551 | 0.443 | 0.551 | 0.396 | 0.482 | 0.689 | 1.49 | 0.354 | 0.333 | 0.829 | 0.561
IVAREYFSKAD [CAMK2B_Y107_E110K_YF] | 0.604 | 0.787 | 0.473 | 0.342 | 0.469 | 0.448 | 0.434 | 0.402 | 0.368 | 0.437 | 0.542 | 0.627 | 0.427 | 0.358 | 0.693 | 0.421
IVLEKYKLLPE [DHFR_Y157_D153V] | 0.907 | 0.922 | 0.575 | 0.346 | 0.453 | 0.676 | 0.596 | 0.752 | 0.45 | 0.638 | 0.809 | 0.843 | 0.458 | 0.386 | 1.07 | 0.53
IVRSLYEDPED [VHL_Y185_L188P] | 0.815 | 0.823 | 3.15 | 0.586 | 0.455 | 0.619 | 0.502 | 0.707 | 0.738 | 0.698 | 0.878 | 1.12 | 0.544 | 0.424 | 1.02 | 0.748
IVRSPYEDLED [VHL_Y185_L184P] | 0.766 | 0.962 | 5.64 | 0.531 | 0.506 | 0.748 | 0.571 | 0.704 | 0.562 | 0.682 | 1.35 | 1.31 | 0.528 | 0.533 | 1.16 | 0.58
IYGASYVPFAA [RBM47_Y541] | 0.649 | 0.616 | 0.553 | 6.94 | 10 | 9.26 | 0.78 | 0.708 | 7.91 | 0.861 | 2.11 | 0.701 | 7.75 | 6.3 | 0.687 | 0.67
KANEFYPVVLI [ADAMTS18_Y765_YF] | 0.421 | 0.663 | 0.388 | 0.506 | 0.482 | 0.68 | 2.76 | 1.97 | 0.82 | 0.48 | 1.06 | 1.03 | 0.412 | 0.451 | 1.15 | 0.448
KASVDYIRKLQ [MITF_Y360] | 0.899 | 0.838 | 0.454 | 0.345 | 0.336 | 0.503 | 0.364 | 0.482 | 0.351 | 0.409 | 0.589 | 0.765 | 0.351 | 0.32 | 0.651 | 0.393
KCLAVYQAGAR [APOE_Y180_R176C] | 0.628 | 0.841 | 0.677 | 2.45 | 0.646 | 0.734 | 0.47 | 0.557 | 0.487 | 0.646 | 0.744 | 0.737 | 0.812 | 0.478 | 0.742 | 0.597
KDDEKYLDVSR [MTM1_Y260_I264S] | 0.649 | 0.794 | 0.532 | 0.433 | 0.456 | 0.824 | 0.473 | 0.655 | 0.442 | 0.556 | 0.973 | 0.951 | 0.457 | 0.423 | 1.09 | 0.521
KDGNGYISVAE [CALM3_Y100_A103V] | 0.746 | 0.685 | 2.5 | 0.598 | 0.407 | 0.679 | 0.404 | 0.473 | 0.442 | 0.485 | 0.671 | 0.771 | 0.462 | 0.418 | 0.859 | 0.362
KDQGIYEDFVE [MYL6_Y86_T85I_YF] | 1.07 | 1.05 | 0.572 | 2.84 | 2.6 | 0.932 | 0.688 | 0.901 | 1.82 | 0.949 | 1.3 | 1.45 | 1.07 | 0.614 | 1.49 | 0.831

Sequence | SH2 binding enrichment (SHP2-C SH2) | SH2 binding enrichment (Grb2 SH2) | SH2 binding enrichment (c-Src SH2) | phosphorylation enrichment (c-Src) | phosphorylation enrichment (Fyn) | phosphorylation enrichment (c-Abl (mouse)) | phosphorylation enrichment (FGFR1) | phosphorylation enrichment (FGFR3) | phosphorylation enrichment (Fer (mouse)) | phosphorylation enrichment (EPHB2) | phosphorylation enrichment (Jak2) | phosphorylation enrichment (AncSZ) | phosphorylation enrichment (Hck) | phosphorylation enrichment (MERTK) | phosphorylation enrichment (Fes) | phosphorylation enrichment (EPHB1)
KEAQVYQAFKL [SUCLG2_Y343] | 0.616 | 0.858 | 0.408 | 7.32 | 11.3 | 15.3 | 0.516 | 0.603 | 9.27 | 0.566 | 0.801 | 1.1 | 9.46 | 2.84 | 1.05 | 1.07
KGEDFYFVTCH [FHL1_Y149_C150Y_YF] | 0.345 | 0.743 | 0.392 | 0.468 | 0.451 | 0.9 | 0.62 | 0.946 | 0.588 | 0.788 | 1.49 | 1.26 | 0.503 | 0.491 | 1.57 | 0.709
KGYCGYSYDDI [TMEM230_Y110_R108C] | 0.993 | 0.837 | 7.21 | 0.862 | 0.468 | 0.621 | 0.927 | 0.823 | 0.89 | 0.536 | 0.891 | 1.35 | 0.563 | 0.607 | 0.972 | 0.557
KILGTYYETGS [PAX2_Y72_R71T] | 0.822 | 1.02 | 1.23 | 1.29 | 0.769 | 0.592 | 1.85 | 1.61 | 0.466 | 0.641 | 0.653 | 0.875 | 0.818 | 1.01 | 0.936 | 0.66
KIPGRYYETGS [PAX2_Y72_L69P] | 0.727 | 0.97 | 0.823 | 0.476 | 0.496 | 0.689 | 0.503 | 0.539 | 0.588 | 0.424 | 0.637 | 0.56 | 0.388 | 0.573 | 0.713 | 0.445
KKARAYGPGIE [FLNA_Y287] | 0.855 | 0.693 | 0.408 | 0.392 | 0.357 | 0.468 | 0.323 | 0.343 | 0.38 | 0.335 | 0.418 | 0.576 | 0.405 | 0.399 | 0.446 | 0.328
KKCTRYIDCDL [ASPA_Y64] | 0.83 | 0.932 | 0.875 | 0.429 | 0.389 | 0.757 | 0.623 | 0.575 | 0.423 | 0.434 | 0.782 | 0.798 | 0.41 | 0.421 | 0.852 | 0.428
KLADIYQAELR [GFAP_Y116_V115I] | 0.561 | 1.01 | 0.541 | 1.62 | 0.795 | 0.674 | 0.419 | 0.582 | 0.502 | 0.595 | 0.813 | 0.789 | 0.799 | 0.709 | 0.839 | 0.59
KLADMYGGGED [CDH1_Y876] | 0.748 | 0.812 | 0.558 | 0.42 | 0.484 | 0.455 | 0.561 | 0.509 | 0.461 | 0.43 | 0.732 | 0.766 | 0.463 | 0.436 | 0.79 | 0.424
KLASTYREAAT [DEAF1_Y483_H479L] | 0.508 | 0.787 | 0.418 | 0.273 | 0.371 | 0.432 | 0.352 | 0.351 | 0.267 | 0.337 | 0.309 | 0.353 | 0.318 | 0.344 | 0.494 | 0.343
KLIETYSSKNY [PLP1_Y50_F51S] | 0.703 | 0.912 | 0.522 | 0.543 | 0.429 | 0.591 | 0.584 | 0.619 | 0.44 | 0.759 | 0.653 | 0.649 | 0.536 | 0.539 | 0.838 | 0.684
KLLPEYPGILS [DHFR2_Y163_V166I] | 0.71 | 0.884 | 0.528 | 0.431 | 0.436 | 0.627 | 0.467 | 0.524 | 0.466 | 0.458 | 0.739 | 0.772 | 0.419 | 0.376 | 0.832 | 0.488
KLSCSYSHLSA [C4BPA_Y470_W473L] | 0.734 | 0.897 | 0.631 | 0.584 | 0.572 | 0.782 | 0.574 | 0.742 | 0.55 | 0.588 | 1.06 | 1.15 | 0.513 | 0.58 | 1.21 | 0.535
KLSFSYGQALQ [ALDOB_Y302_R304Q] | 0.703 | 0.861 | 0.475 | 0.41 | 0.422 | 0.686 | 0.503 | 0.72 | 0.529 | 0.564 | 1.03 | 1 | 0.383 | 0.437 | 1.1 | 0.649
KMKGDYFCFLA [YWHAG_Y130_R132C_YF] | 0.7 | 0.854 | 0.668 | 2.94 | 2.13 | 2.24 | 11.9 | 9.56 | 0.548 | 1.56 | 6.97 | 2.31 | 1 | 2.32 | 1.18 | 2.48
KMKGDYYRSLA [YWHAG_Y130_Y133S] | 0.87 | 0.888 | 0.891 | 0.389 | 0.388 | 0.541 | 0.718 | 0.513 | 0.325 | 0.401 | 0.616 | 0.54 | 0.444 | 0.434 | 0.562 | 0.369
